In the test the target is T1, CD20 (Acro Biosystems) (UniProt P11836 1-297).
T1 sequence (looked up): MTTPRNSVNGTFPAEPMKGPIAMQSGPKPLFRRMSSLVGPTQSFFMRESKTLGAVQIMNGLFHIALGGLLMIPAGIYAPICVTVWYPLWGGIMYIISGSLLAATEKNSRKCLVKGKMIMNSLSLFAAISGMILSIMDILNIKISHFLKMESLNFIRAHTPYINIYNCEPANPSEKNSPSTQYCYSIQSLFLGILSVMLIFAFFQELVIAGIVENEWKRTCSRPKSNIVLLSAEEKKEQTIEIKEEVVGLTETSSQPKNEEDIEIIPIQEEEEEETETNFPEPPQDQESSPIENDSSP

B1: rituximab (antibody, human IgG1, kappa, V domains shown)
VH: QVQLQQPGAELVKPGASVKMSCKASGYTFTSYNMHWVKQTPGRGLEWIGAIYPGNGDTSYNQKFKGKATLTADKSSSTAYMQLSSLTSEDSAVYYCARSTYYGGDWYFNVWGAGTTVTVSA
VL: QIVLSQSPAILSASPGEKVTMTCRASSSVSYIHWFQQKPGSSPKPWIYATSNLASGVPVRFSGSGSGTSYSLTISRVEAEDAATYYCQQWTSNPPTFGGGTKLEIKR
B1: the Kd was less than 1 pM, the koff is less than 1e-07 s⁻¹ and the kon is 140000 M⁻¹ s⁻¹.

The values are drawn from US20230173091A1 (published 2023).
